Measurements: the DeepSol protein solubility set

Experiment: soluble on expression in E. coli; label from the status in PepcDB or PDB records

Row | Sequence | soluble on expression in E. coli
1 | MGSDKIHHHHHHMKSIIHSTENNNFYLYDTQRILSMLIHPELKKIHEKSTDINIDAYYLKKYSYLVNHGFFGEAKPFEFKANISENSIKENITQTKVIVFEITDYCNLKCKYCSLGDLYNFSKKESKNINIKYALNFLRYIFNVKHKKTKLTISFFGGEPLVNFPAIQQIIEEAKLLNKNKKLDLMFNMTTNATLIHKYIDFIVENNIELLISFDGNEKAHSYRTYASNNKNSFHDVLMNTDMIKLKHPSYFDKYVNFNAVLNNRNSIKGIYEFIYNRYGKIPRISQLSSDHINLNKKNIFDDIFHSRKISEKEFQKEGSDVLPIVSNRLIPFNESKKFLKHYSLNLYLSNTLYLLYDLIDSFPTGTCLPFQTRIFLNTHNNLLPCEKVSYKNFLGKVNDHVFINIPEIVQRYNSYYVHCKKVCQYCYGGRACSTCLLSLDNLDQLGVEEFVCPDFQNQKTFEDKLNRIFSYLEKCPSEFFQIINHLITE | not soluble
2 | MAHHHHHHMADYNAAGADTAVVDDNVPPGITTKQDEIIQYVAKYVVASCDGARYQDKVRTRTKHNPYFDFLNAKHPYHQYYQYLLESYRHWMRNSEAVGAGTWGGGVDATQGQGQQQQWNEEDYYQYYGAYAGQASGIEFQGNAAGQLG | not soluble
3 | MGSDKIHHHHHHMKLGTQNQAFFPENIEEKFAYVKEMGFEGFEIDGKLLVENLDEVKKAIEKTGLPVSTACGGYDGWIGDFIEERRLNGLEEIKAILEALAEVGGQGIVVPAAWGMFTYRLPPMVSPRSQAGDFKAVSESLVYLDKIAGETGTKVYLEPLNRYQDHMINLLSDAQKYIDENELKNVEIIADFYHMNIEEDSIPTVLETYKDSIGHIHVADNHRYQPGSGSLDFKTSFDQLKKNGYNGFLTFECRVRSENPEQAYKDALAHLKSCLI | not soluble
4 | MGSDKIHHHHHHMQKTLNTKKANLAMERAGLTQTAVAESLAVSKEAVSQWLSSKSFPRPNKLLQLGKLLGLPFDELVIKEDPFTPKVAFRKKAGTKTKDHHIEKAQEMGRFLRHLVAYLPFDTLEMPPVLKSPSCEYDYLCKVTAKVREDINVGTAECIDFSHLIRRFSELQAVVVPVMWGVKQRHENAVHIHLPDSQSTWVYLNLDTNIHDFKFWMAHELGHCLSPSLEGDNAEDFADAFAATLLYPNELAEKAYTSINAQPSPAAKIAHVVDLADQFTISPYTVLGQANKYALSTGRNEIKLSNSFHGAVTNFNKRYKNLSEALFGDAELDEHGKPSAKEYINKAETAFETPFFELLRKYLKEHDKGPGFVQTVLDMPLLDARSIHTELT | not soluble
5 | MSAKDFLVELGTEELPPKALNSLGEAFLSGIEKGLKAAGLSYAAARFYAAPRRLAVLVEQLAVQQPDRTVNLDGPPLQAAFDASGNPTQAALGFAKKCGVDLQQIDKSGPKLRFIQTIAGQPAAGLLPGIVEASLNELPIPKRMRWAARREEFVRPTQWLVMLFGDDVVECEILAQKAGRESRGHRFHNPDNVRISSPAAYLEDLRGAHVLADFAERRELIAKRVAELAAEQQGSAIVPPSLLDEVTALVEWPVPLVCSFEERFLEVPQEALITTMQDNQKYFCLLDANGKLLPRFITVANVESKAPENIVSGNEKVVRPRLTDAEFFFKQDKKQPLESFNERLRNVVFQAQLGTVFEKAQRVSGLAAYIAERIGGNAQNASRAGILSKCDLATEMVGEFPEMQGIAGYYYATHGGEAEDVALALNEQYMPRGAGAELPSTLTGAAVAVADKLDTLVGIFGIGMLPTGSKDPYALRRAALGVLRILIEKQLDLDLVAAVNAAVEQYGDKVKAAGLAEQVLDFVFDRLRARYEDEGVDVAVYQSVRALKPSSPLDFDQRVQAVQAFRQLPEAEALAAANKRVSNILAKSEDEVPPNVDASLLVEAAEKALGSAVANAESEVAPLAAARDYRAALARLAALREPVDTFFADVMVNVDDAAVRANRYALLAKLRGSFLGVADIS | not soluble
6 | SLAATGNASKPSLNSFYADGLGQLRNGLFSCFQPVFGYFGTKTTVEIEKSEDELWEIPFDAISELEWLGSGSQGAVFRGQLENRTVAVKKVNQLKETEIKHLRHLRHQNIIEFLGVCSKSPCYCIVMEYCSKGQLCTVLKSRNTITRELFAQWVKEIADGMHYLHQNKVIHRDLKSPNILISAEDSIKICDFGTSHMQKKMDSTMMSFCGTVSWMAPEMIKKQPCNEKVDVYSFGVVLWEMLTRETPYANIAQMAIIFGVGTNILSLPMPEEAPKGLVLLIKQCLSQKGRNRPSFSHIRQHWEIFKPELFEMTEEEWQLAWDSYREFAKCIQYPSTVTRDHGGPKSAFAMEEEIQRKRHEQLNHIKDIRNMYEMKLKRTNKMYDKLQGCFTELKLKESELAEWEKDLTER | soluble
7 | MGSDKIHHHHHHSSSDLKDLLRERIAAKYTIDDLKDTGKKIRKTAPIESLAAVSKIDRDPVQFINSVEQNLTKSLLPMRHSRMGASQAAFFRGTAELMAYDLQQGEKSGINLLIDGDAHLQNFGFYASPERNLLFDLNDFDEAQINSFEFDIKRLLTSVYLLGDQQGFDADKLDELVQTDASIYRKTLRDLFKVGALDRFYQSTEVNHLVQSIPGAEDSALLSKFVKKATKRNNDSVIKKYTTTIDGNMRFKDDPPSSVRLDKATYQAIFDGFTQYRKSTRPDILVLLSEYRITDIIHHSVGIGSFGTNCYLVLLSGLGGSHLVLQVKEALPPRPELIPNTERITLQQEVSQGQRIIASQMILQKASDPFLGWFNVGDKSYYVRQFRDMKGSVDLEELTFPEFQYYTQITTYLLAMAHAQTPQAAVVTGYLDKSFDSAVQRWSKWYLNQVKADYSAFMRAVQTHMLA | not soluble
8 | MGSDKIHHHHHHLINVAETTGLQTKAFVGEADFQIVDYAGDKCIQFKNDSVFNAMLWEMNDMSEEERNNIFSGAGFVSQWQLMQEADQEQELIVDNYEKDLSQPWPAHQIKEFKQKYDDVFMFEPYDSTDFIAHYKLKGSTYSSFVNRRGVFLIGDSVAHAPVYKALEEYFGSGISLYGNNEATNEKNDINLAESKYQIPGGDYVKVRAIPRFIELQTIENKNYLSLGFDYLSQKKKVLWKKHRTMIILRLTASGSGSGFEVYNVSIKNYQNKNGVTILLHTDVYNKLLAKDQGGMLGHVGENPRNSVTIVTPPRFEFSGRMEIWSDEMPESNKGTAKISLKEDW | not soluble
9 | MLTIGLYNTYDTKKLHEAHIRAIARAAPVAYAYEFHLALIGFPFDSDDPKEVAERVASTTTIGEGGKYLLELAKSNKFHLLDFPKRGFPPQFGEVIATTSKPSKEKVIGSREVAEMALRGKSLMLIIGLGRHGLPKEVFEISKYHLDITDGREISLETCTAIGIIPARIKTLMEALKWK | not soluble
10 | MQAGPALMRILPISTIKGKLNEFVDAVSSTQDQITITKNGAPAAVLVGADEWESLQETLYWLAQPGIRESIAEADADIASGRTYGEDEIRAEFGVPRRPHDYKDDDDK | soluble
11 | MAKRVPNMELFVFCEDLEFTQNLDLGYPFMDMTTRDKEEEAYWDMLLMQSCQHGIIANSTYSWWAAYLIENPEKIIIGPKHWLFGHENILCKEWVKIESHFEVKSQKYNALEHHHHHH | soluble
12 | AHHHHHHASAKWVCKICGYIYDEDAGDPDNGISPGTKFEELPDDWVCPICGAPKSEFEKLEDGSRGAYILLLYLPRNSIIKTKGKVFRLKKGYYAYVGSGMNSLEGRVLRHLRKDKKLHWHIDYLTLIATPLKAYLVPSPVRIEEELSKSLNMVGKVVKGFGSSDLSVPGNLFFFDKDPSEKIEEIVWAFLSRKPKSDDLRQDTS | soluble
13 | MAHCTEYMNAPKKLPADVAEELATTAQKLVQAGKGILAADESTQTIKKRFDNIKLENTIENRASYRDLLFGTKGLGKFISGAILFEETLFQKNEAGVPMVNLLHNENIIPGIKVDKGLVNIPCTDEEKSTQGLDGLAERCKEYYKAGARFAKWRTVLVIDTAKGKPTDLSIHETAWGLARYASICQQNRLVPIVEPEILADGPHSIEVCAVVTQKVLSCVFKALQENGVLLEGALLKPNMVTAGYECTAKTTTQDVGFLTVRTLRRTVPPALPGVVFLSGGQSEEEASVNLNSINALGPHPWALTFSYGRALQASVLNTWQGKKENVAKAREVLLQRAEANSLATYGKYKGGAGGENAGASLYEKKYVY | soluble
14 | MNEIYDREQMIKLLDLAKNTEMELPINLAIGLGLRISEVLGLTWDNIDFEENTITVNKITSRINGSVILKEPKTESSVRKISSPKELMSLLKEYKIKQNKNLLKSSIRNNNNLLFFNKKCEPIAEDVMSKKFKRFLEKNELPHIRFHDLRHSHVTLLINSKVPIKVISERVGHSNISTTLSVYSHVLKEMDKEASDKISESLFNANLEHHHHHH | not soluble
15 | MGSDKIHHHHHHMPIVTIGIDLAKNIFAVHGVDEAGKAMLIKPRVPRDQLATLIAQLPACLIGMEACSGAHHWARLFQQHGHTVKLMAPNLVAPYRMSGKRGKNDAADAAAICEAVARPSMRFVPLKDEHQQATLCLHRTRQGFVEERTATYNRLRGLLPEFGVVLPQSPEKLRRYVTEHLDALPGWAKRSIGDLLEHAGHIEDRLLEYDRAIAEIAREDARSKRLMQLRGVGPTTASALLASIGAGRDFRNGRQVAAWIGLTPGQYSSGGKARLGSITKAGDAYLRGLLVNGARAVIANLGEKQDRFSRWVRTLIERRGYWRAAVAIAAKNARLAWASLKYGEDFKLEPAAD | not soluble
16 | MYKTFYSLSREPFAKETDPSEAYQGAAFQEALRALEYVKRTRGIGLLIGEPGAGKTFALRALKESLNPSLYHVVYFPLSTGGVMDFYRGLALGLGEEPKYRKVDLFRQIQQAIERLHHERRITPVFILDEMHLAKDAFLQDIAILFNFEMDSTNPFVLILAGLPHLQGKLRLNQHRPLDQRIIMRYRMGPMEKEEVAGYIEHRMKQAGAKHPIFTPSALEAIALQSRGWPRVINTLATTCLLYGHQLKKDVIDEEVVRMAAEEMGY | not soluble
17 | MSLNRSSFDLLSTVEYGGCSAKLDPAKLSELLHDIPLPVDSRIMVDVSTHDDAGVYRLNDDTALIVTTDFFPPVCSDPYTFGRIAAANALSDVYAMGGRPLLVLNLTMFPSEGIPVEVLADILRGGQQTIDESGAFTMGGHTIDDPIPKYGLAVTGIVHPEHLVTNAGVRAGQCLVLTKPLGIGVAMAAHRLGLIGSEVYEAAIGQMCLLNRAGAELMQKYGIRGATDITGFGLLGHAKELAEASDVCLHIDSRSVPVLPECLSLLRDGCIPGATFRNLRFVGDMLRADCPTEYKMLLADAQTSGGLLMAVDADRAEDLVADLHRTGLHPFAAIIGYATDAEDAAKLIVTEGHHHHHH | soluble
18 | MKGVNQQKKRLKVMTPLEKYQQDLNQEGFMHDSAQRNAVEHLDDLYRRFLELKVPEEPAKKSWKRFFKKEKPQKLTPEKGLYFWGGVGRGKTYLVDTFYDALPTERKMRIHFHRFMQRVHDELGELKQQSDPLLIVADKFKQETDIICFDEFFVSDITDAMILATLLEALFARGITLVATSNILPQDLYRNGLQRARFLPAISLIEQHCDIINVDSGVDYRLRTLEQAEIYHYPLDSDAETNMKGYFLQLASGCDYESTQIEINHRLIEVKAEGDGVVHFDFASLCESARSQHDYIELSRLYHTVLLSNVKIMGEVNDDAARRFIAMVDEFYERNVKLIISAEVDLTSIYQKGRLTFEFQRCQSRLIEMQSHEYLSKEHLSLEHHHHHH | not soluble
